# Experimental data reported in the DeepSol protein solubility set.
# Test: soluble on expression in E. coli; label from the status in PepcDB or PDB records
row,Sequence,soluble on expression in E. coli
1,MGSDKIHHHHHHMSKIFAQDTDCSFLIEQAVKAPSGHNTQPWTFRIKETGIDILPDFTKTLPVVDPDNRELFVSLGCATENLCVAAAHKGYETMVSIAENGTIHIELTKQDSDTPSPLFPHISVRQTNRSVYDGNTIPVNDIVALGEKSDMEPCVGAHFFKNGTREFDAISEMVCEGNSIQMRDKKFKEELQQWMRYNKKHQDATRDGLSYAVFGAPNLSRFIAKAIITRLINEKSQNRNDRRKIASSSHFVLFTTSNNTVVQWIKLGRALEHILLKATGMGISHAYMNQPNEVQGLSGKMAEILGIEDEYPTVLIRLGYGSKMPYSLRRSVQSCIIPNSFD,not soluble
2,MAAAAKPNNLSLVVHGPGDLRLENYPIPEPGPNEVLLRMHSVGICGSDVHYWEYGRIGNFIVKKPMVLGHEASGTVEKVGSSVKHLKPGDRVAIEPGAPRENDEFCKMGRYNLSPSIFFCATPPDDGNLCRFYKHNAAFCYKLPDNVTFEEGALIEPLSVGIHACRRGGVTLGHKVLVCGAGPIGMVTLLVAKAMGAAQVVVTDLSATRLSKAKEIGADLVLQISKESPQEIARKVEGQLGCKPEVTIECTGAEASIQAGIYATRSGGTLVLVGLGSEMTTVPLLHAAIREVDIKGVFRYCNTWPVAISMLASKSVNVKPLVTHRFPLEKALEAFETFKKGLGLKIMLKCDPSDQNP,not soluble
3,MLRFVAILQFILLLLLIFSCNADEAKCTIKPYEAKGDKSPGSNGYVIEINGTTTKSMDISKGFVPGEIYKVSIRGWRTQYTVKTFRGFVVSSLFEDNTSAGSWQVVKGHGDARISPGCRQSGVSHANLKSKTSVHMMWKAPEVSSGCVVFRASVIETKYIWFTEAEGLTVKLCIQKGTQILKPVDDPSATCCACDIAQYDLEFTGIWSKNTHPKDYPTLEHLTHFTDMLGSSHSSNYSLWTIGGISTDGMKEIAEWGNTYKAEAEAKAKASEVRSLMKVKGLWFPDVQGTTKSQFVVNKYHHFVSLATMFGPSPDWCVGLSSVNLCLPDCTWAEERTFELQPFDAGTDSGPTYMSPNEPTEPREPIHWITTKLNPLSPFYNSKSDTIPTLAKVILRRKNVTSSECKSDDILKAEAHNITNTSEDEEYKDRRECMMTQWEPWSLCSATCGKGIRIRSRVYVFPIKAQVFHCHRQTTEKQFCNAKINECENSEAFSSKCQVSSWGSWGECSVQCGHGMRSRNRTFLNPATKSGDCSVDLERKDICVGENGDDCNVTPDPLCKTTAWSDWSPCSASCDEGVRVRTRLFFYSEHEKRCMHVNLQEKDTCVMQSCRRFIEINSEEICQEDKQAGQCAGNFPRYWYNHEKTQCERFIFTGCKGNRNQFETEEECKQICLPGYEKSKSLIPNNQLLEDFGNTEVDDGGERVDCEVSKWTAWGSCSVSCGRGKKSRSRHVVKLARNGGHQCSEHLMQELQCRLRPCPVKLTCQVGPWSRWSPCSVSCGEGSQTRRRRVVRARNDDWEEIECDDAETEVRQCTGRHQC,not soluble
4,MSLKKYQLVIVGYGGMGSYHVTLASAADNLEVHGVFDILAEKREAAAQKGLKIYESYEAVLADEKVDAVLIATPNDSHKELAISALEAGKHVVCEKPVTMTSEDLLAIMDVAKRVNKHFMVHQNRRWDEDFLIIKEMFEQKTIGEMFHLESRVHGANGIPGDWRHLKAHGGGMVLDWGVHLLDQLLFLVDSNVKSVSANLSFALGDEVDDGFVTFITFENGITAQIEVGTTNFIKLPRWYVKGTEGTGIIHDWDLSGEIVKPTALAKTSEPTPIKAGQGLTKTMAPPSEEATNTLSLPAPAKLAPSFYNNFVDVLNNTSEPIVQNEEVYQVLKLIEAIFEAAETNRTVHSIEGHHHHHH,soluble
5,MAYEDLREFIGRLEDKGELARVKHEVSPILEMSEVADRTVKAGGKALLFERPKGYDIPVFMNAFGTERRMKLALEVERLEEIGERLLSALEFRPSSFMDALKGVGMLKDFMSFIPKKTGKAPCKEVVAESLDKFPILKCWPKDAGRFITFPVVITKDPETGEMNAGMYRMQVFDGKTTGMHWQIHKHGAEHFRKMAEKGGGKIEVAVAIGVDPATLYAATAPLPSGISEFMFAGFIRKERLKVTECETVDLLVPANAEIILEGYVRVDEMRVEGPFGDHTGYYTPPEPYPVFHITHITHRENPIYHATVVGKPPMEDAWLGKATERIFLPILRMMHPEIVDINLPVEGAFHNLAIVSIKKRYPGQAKKVMYAIWGTGMLSLTKIVVVVDDDVNVHDMREVVWAVTSRFDPARDVVILPPSPTDSLDHSAYIPNLAGKLGIDATKKWRDEGYEREWPDVVEMDAETKRKVDAIWNEIRNMVLAAALEHHHHHH,not soluble
6,MRNNPLIPKSKLPNLGTTIFTQMSALAQKHQAINLSQGFPDFDGPRYLHERLAYHVAQGANQYAPMTGAQALREAIADKTAEIYGYRPDDVSDITVTAGATEALYAAITALVRAGDEVICFDPSYDSYAPAVALSGGVLKRIALTPPHFRVDWQAFSALLSERTRLVILNTPHNPTATVWRQADIEALWQAIGEREIYVLSDEVYEHICFAAEGHASVLAHPQLRERAVAVSSFGKTFHMTGWKIGYCVAPAAISAEIRKVHQYLTFCVNTPAQLALADMLRAAPEHYRALPDFYRKKRDVLVNALAQSRLKVLPCEGTYFLLIDYSAVSTLNDVEFCQWLTEEVGVAAIPLSVFCAAPFPHQLIRLCFAKQESTLLAAAERLCKL,not soluble
7,TPDADKKGAVFALDQEPEAQAAVVALDPLSGAVKAMVGGYDFRKSQFNRALQAKRNPGSAFKPLIYAAALDKGITPATIFDDSPVEYESGKEKAWKPKNYDNIYRGNVTMREALTNSINVVSVKILEQIGVDYAIEYAKKLGITSPLSANLTLALGSSSLTPLELTSAYAVFASGGYRTTPYFVTRVEDAEGRTLEETAPPVIPRFSVMTSAESSPLEASPAPPATAGDSASTAVPVIAPETAYIMTNLMESVVQSGTGQRARAVGRPVAGKTGTTNDMKDAWFVGYIPQLVAGVWVGYDQERSLGAGGSGGQAAAPIWTEFMRRAVAGIPSRDF,not soluble
8,MAFLKIDNGELLKNIRQFAKKNGLTLAEVATLAGLSASAIYSWKKHTPSVGTLKEVAQVLGTSYTKLVGKDKEPTAKATNAAAVDLKKVIENKKNQFEYDGQPITNEQMKIIRNVLKSMFKTPRL,not soluble
9,MELLFLGTGAGIPAKARNVTSVALKLLEERRSVWLFDCGEATQHQMLHTTIKPRKIEKIFITHMAGDHVYGLPGLLGSRSFQGGEDELTVYGPKGIKAFIETSLAVTKTHLTYPLAIQEIEEGIVFEDDQFIVTAVSVIHGVEAFGYRVQEKDVPGSLKADVLKEMNIPPGPVYQKIKKGETVTLEDGRIINGNDFLEPPKKGRSVVFSGDTRVSDKLKELARDCDVMVHEATFAKEDRKLAYDYYHSTTEQAAVTAKEARAKQLILTHISARYQGDASLELQKEAVDVFPNSVAAYDFLEVNVPRGKLAAALEHHHHHH,soluble
10,MNRGVIVTGGGHGIGKQICLDFLEAGDKVCFIDIDEKRSADFAKERPNLFYFHGDVADPLTLKKFVEYAMEKLQRIDVLVNNACRGSKGILSSLLYEEFDYILSVGLKAPYELSRLCRDELIKNKGRIINIASTRAFQSEPDSEAYASAKGGIVALTHALAMSLGPDVLVNCIAPGWINVTEQQEFTQEDCAAIPAGKVGTPKDISNMVLFLCQQDFITGETIIVDGGMSKRMIYHGDWNWFYKIDK,soluble
11,MGSDKIHHHHHHMLFHKFFDFFEGYEDCYVIIGGNAAAIWLAQDHQDFRATQDYDMVVIFENSQLGFSQKFDDFIEKYGYLCVEIGGDVNKKKVYYRFALDPALAVTGVPQQIELFSKIPLRYELRLPTETMPLHFATGPSLSAIVLNDDYYSLLKQCQQKIGHVSILSVPGLIYFKAKAHLDIRQRLANGDKLRHRANKNKHYKDVCRLCDLIIENQTFDSKVVPRTCQNDLKSFIQLVEAEPEQIFKKRFKSDPDFDLNRDEVVRVLRSLLPTS,not soluble
12,MNKVLINDTTLRDGEQAAGVVFTLEEKVAIAKFLDTIGVPELEVGIPAMGEEEMRAICAISNLGLKANLLAWNRAVISDIKASVACGMERVHIAIPVSGIQIAAKFHGQWRVSLQRLKDCISFAVDQGLWVAVGGEDSSRADENFLLDVALYAQEWGASRFRFCDTVGVLDPFTTYGKVKLLVSALTIPVEVHTHNDFGMATANALAGIKAGASSVNTTVIGLGERAGNAALEEVVMAIKRIYGVDMGIDTPRLLELSQLVAAASGANVPPWKAIVGENTFAHESGIHAHGVLQNPDTYEPFAPEEVGWERRLVVGKHSGRHSVSNLLEQHGLEHHHHHH,soluble
13,MGSDKIHHHHHHMKGKHKIVVKNNRLHYEFEIKRNITIIKGDSATGKTTLINMIRQFANLGNASGIEIECDAPCTVLEGNLWQMLLKNLSGNIIFIDEENQFIRQQEFAELVKASDNYFVIITRENLYNLPYSVEEIYGLYSSGKYQNTKQIYQEMYHIYPLNQDLSCKPDKIIVEDTNSGYEYFKAISKEKNIVCESAGGKTKIFAMLEQLKAETESICVIADGAAIGPEMDALYKMSVEKGNIKLYLPESFEWIILSSELLEDKEIKDIIDKPENYIESQEYFSWERFFTKLLVDKTAGTYLKYQKGKLNPTYLHEKNKNIILKNIKNSIDF,not soluble
14,MGSDKIHHHHHHMSGPQGRLAIIAGSGMLPVYVAEAARAAGEDPFILPLKNEADQRWDGFQSAVIGVGDMAGLSSLIKRHGIKRVVMSGGVKKRPNFKEIHVNLRFLVKLPFAVKTLLSGGDDAVLKMVIQLIESQGCRVVGAHEIAPQLLAELGPLGSSRPTDDDRRDIAAAAKAADALGRLDVGQGAVSVGGRIVALEGVEGTDRMLQRVAELRSEGRISSRRSGVLVKLCKPQQDIRADLPTIGQSTIENAARAGLSGIAVQAGRALLLQRQETLRQADAAGIFISGIELAPEGEAWLS,not soluble
15,MSLTARVIALDLDGTLLTPHKTLLPSSLDALSRAKEAGFQLIIVTGRHHVAIHPFYQALALETPAICCNGTYLYDYQAKTVLDADPMPVDKALQLIDLLDEHQIHGLMYVDDAMLYEHPTGHVVRTSRWAQTLPPEQRPTFAQVSSLAQAARDVNAVWKFALTDEDIPKLQRFGQHVEQALGLECEWSWHDQVDIARKGNSKGKRLTQWIEAQGGSMKNVIAFGDNYNDISMLEAAGTGVAMGNADEAVKARADVVIGDNTTDSIAKFIYTHLLEGHHHHHH,soluble
16,MESLIGLVNRIQRACTVLGDYGGGTGSNAFNSLWEALPTVAVVGGQSSGKSSVLESIVGRDFLPRGSGIVTRRPLVLQLHKTDDGTEEYAEFLHLPKKQFTDFALVRREIQDETDRITGKNKQISPVPIHLSIYSPNVVNLTLIDLPGLTKVAVEGQPETIAEDIESMVRTYVDKPNCIILAISPANQDIATSDAIKLAKDVDPTGERTFGVLTKLDLMDKGTNALEVLEGRSYRLQHPWVGIVNRSQADINKNVDMMLARRKEREYFDTSPDYGHLASKMGSEYLAKLLSKHLESVIRTRIPSILSLINKSIEELERELDRMGRPVAVDAGAQLYTILEMCRAFDKIFKEHLDGGRPGGDRIYGVFDNQLPAALKKLPFDRHLSLQSVKKIVSEADGYQPHLIAPEQGYRRLIEGALGYFRGPAEASVDAVHYVLKELVRKSISETEELKRFPSLQVELAAAANSSLEKFREESKKSVIRLVDMESAYLTAEFFRKLPQEIERPVTNSKNQTASPSSATLDQYGDGHFRRIASNVSAYVNMVSDTLRNTIPKACVYCQVRQAKLALLNYFYSQISKREGKQLGQLLDEDPALMDRRLECAKRLELYKKARDEIDAVAWVR,not soluble
17,MGSDKIHHHHHHMKTLGERSKERRKIINLTQLQLSKKVGVSSVTISQWESGDTSPKGENLYKLAQALQCSPDWLMFGDSKNTKKPESNAEWAGGFDLWDNDSPLGEDEVEIPFYMDVELSAGEGIAEGVEYKGPKLRFAKSSLKRQGVNTDHAACVKVNGNSMEPVLPHGSTVGVDTSATEIVDGKMYAINHDGMMRVKMLYKLPGGGLRLRSYNTDEWPDEHINNEQLKNIKVIGKVFWYSVLL,not soluble
